Laboratory results: FireProtDB (doi:10.1016/j.bpc.2007.01.002)

Settings: Equus caballus, Thermal, reversible: Yes
[1] = pH 3.8, DSC, Sodium acetate 50 mM, transition: 3
[2] = pH 4.1, DSC, Sodium acetate 50 mM
[3] = pH 4.1, DSC, Sodium acetate 50 mM, transition: 3
[4] = pH 4.5, DSC, Sodium acetate 50 mM
[5] = pH 5, DSC, Sodium acetate 50 mM
[6] = pH 5, DSC, Sodium acetate 50 mM, transition: 3

Sequence of Cytochrome c wild type, P00004 (P00004 whole entry): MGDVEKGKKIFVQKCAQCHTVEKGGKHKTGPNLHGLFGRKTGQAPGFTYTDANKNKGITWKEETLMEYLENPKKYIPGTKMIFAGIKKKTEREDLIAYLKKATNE

Cytochrome c wild type, P00004
Tm (pH 2.9, IATC, KCl 20 mM): 40 °C | unfolding enthalpy (calorimetric) (pH 2.9, IATC, KCl 20 mM): 68.8 kcal/mol | Tm [1]: 68 °C | unfolding enthalpy (calorimetric) [1]: 33.7 kcal/mol | Tm [2]: 70 °C | heat capacity change of unfolding [2]: 1.34 kcal/mol/K | unfolding enthalpy (calorimetric) [2]: 112 kcal/mol | Tm [3]: 69 °C | unfolding enthalpy (calorimetric) [3]: 33.7 kcal/mol | Tm [4]: 74.1 °C | heat capacity change of unfolding [4]: 1.51 kcal/mol/K | unfolding enthalpy (calorimetric) [4]: 119 kcal/mol | Tm [5]: 76.2 °C | heat capacity change of unfolding [5]: 1.39 kcal/mol/K | unfolding enthalpy (calorimetric) [5]: 124 kcal/mol | Tm [6]: 73 °C | unfolding enthalpy (calorimetric) [6]: 37.5 kcal/mol
